Experimental data taken from paper PMC8018021 (Proceedings of the National Academy of Sciences of the …, 2021).
Where “and” joins values, the source holds several entries; their conditions need not be identical. Equal values may be shown once. One block for each molecule: values may come before it.

Experiments:
[1] = molecular target: T1, PII–PirC complex (Synechocystis sp. PCC 6803, UniProt Q55247); assay: bio-layer interferometry, enhancement of PirC–PII binding; details: effector promotes PII–PirC complex
T1 sequence (Q55247 whole entry, one chain of several): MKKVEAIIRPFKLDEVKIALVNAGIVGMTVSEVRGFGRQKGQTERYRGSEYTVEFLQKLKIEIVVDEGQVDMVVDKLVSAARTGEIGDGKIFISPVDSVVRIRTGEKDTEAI

[2] = molecular target: T2, PGAM–PirC complex (Synechocystis sp. PCC 6803, UniProt P74507); assay: bio-layer interferometry, inhibition of PirC–PGAM binding
T2 sequence (P74507 1-532): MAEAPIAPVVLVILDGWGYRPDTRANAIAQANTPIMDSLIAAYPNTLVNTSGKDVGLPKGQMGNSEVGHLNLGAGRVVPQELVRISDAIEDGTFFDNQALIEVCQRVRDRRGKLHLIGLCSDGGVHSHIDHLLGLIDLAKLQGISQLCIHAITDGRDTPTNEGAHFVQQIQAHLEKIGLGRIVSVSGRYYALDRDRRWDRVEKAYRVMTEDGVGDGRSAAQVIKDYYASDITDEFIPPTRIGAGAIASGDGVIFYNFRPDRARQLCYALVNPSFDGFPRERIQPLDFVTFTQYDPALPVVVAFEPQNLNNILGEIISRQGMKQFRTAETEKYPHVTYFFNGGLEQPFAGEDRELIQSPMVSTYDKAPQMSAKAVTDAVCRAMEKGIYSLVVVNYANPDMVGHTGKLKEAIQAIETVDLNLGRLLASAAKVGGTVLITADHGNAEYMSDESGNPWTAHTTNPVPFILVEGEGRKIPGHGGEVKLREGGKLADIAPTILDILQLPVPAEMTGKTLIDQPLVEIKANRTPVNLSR
T2 sequence (P77971 53-164 partner): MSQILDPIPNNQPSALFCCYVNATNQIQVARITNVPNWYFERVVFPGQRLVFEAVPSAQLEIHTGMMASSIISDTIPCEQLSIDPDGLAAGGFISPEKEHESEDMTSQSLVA

[3] = molecular target: T1, PII–PirC complex; assay: bio-layer interferometry, inhibition of PirC–PII binding
[4] = molecular target: T3, PII signalling protein, C-terminal His8-tagged (Synechocystis sp. PCC 6803, UniProt Q55247 1-112); assay: SPR
T3 sequence (Q55247 whole entry): as the sequence (Q55247 whole entry, one chain of several) above

[5] = molecular target: T3, PII signalling protein, C-terminal …; assay: BLI
[6] = substrate: O=C(O)[C@H](O)COP(=O)(O)O; assay: purified protein; type: biochemical, Synechocystis sp. PCC 6803; details: no PirC, pH 8.0, 30 °C, 5 mM MgSO4, 0.4 mM MnCl2, 100 mM KCl

Molecule: Nc1ncnc2c1ncn2[C@@H]1O[C@H](COP(=O)(O)OP(=O)(O)O)[C@@H](O)[C@H]1O [ADP]
- bio-layer interferometry, enhancement of PirC-PII binding ([1]; 2 mM ADP): In the presence of ATP or ADP, PirC binding to PII strongly increased

Molecule: Nc1ncnc2c1ncn2[C@@H]1O[C@H](COP(=O)(O)OP(=O)(O)OP(=O)(O)O)[C@@H](O)[C@H]1O [ATP]
- bio-layer interferometry, enhancement of PirC-PII binding ([1]; 2 mM ATP): In the presence of ATP or ADP, PirC binding to PII strongly increased

B2: PGAM (Synechocystis sp. PCC 6803 substr. Kazusa) (protein)
chain: T2 sequence (P74507 1-532)
- Km [6]: 0.1266 ± 0.0064 mM
- Vmax [6]: 2.85 µmol/min/mg
- kcat [6]: 2.78 ± 0.03 s⁻¹
- kcat/Km [6]: 22000 M⁻¹ s⁻¹

Next, values leading:

- IC50 [2]: 0.97 ± 0.001 mM
Molecule: O=C(O)[C@@H](CO)OP(=O)(O)O [2-PGA]

- IC50 [2]: 2.4 ± 0.001 mM
Molecule: O=C(O)[C@H](O)COP(=O)(O)O [3-PGA]

- IC50 [3]: 123.4 ± 1.1 µM
Molecule: O=C(O)CCC(=O)C(=O)O [2-OG]

- stoichiometry N [4]: ~1 PirC monomer per PII trimer
- Kd [5]: 37.3 nM and 14.1 nM
B1: PirC (PII-interacting regulator of carbon metabolism; product of sll0944), short 112-amino-acid variant, strep-tagged (natural protein)
chain: T2 sequence (P77971 53-164 partner)
